Values belong to the binder of their own block, whether it stands above or below them.
Assays:
[1] = target: isolated bovine native thin filaments (NTFs) (bovine), Q3ZC07; assay: co-sedimentation; C0C2 constructs cosedimented with isolated bovine native thin filaments (NTFs); as in ref. 15
[2] = target: myosin S2Δ (fragment of the S2 region of myosin consisting of its first 128 residues); assay: MST; C0C2 constructs binding to myosin S2Δ; as in refs 15 and 25
Sequence of myosin S2Δ (fragment of the S2 region of myosin consisting of its first 128 residues) (P12883 838-965, stated change not applied): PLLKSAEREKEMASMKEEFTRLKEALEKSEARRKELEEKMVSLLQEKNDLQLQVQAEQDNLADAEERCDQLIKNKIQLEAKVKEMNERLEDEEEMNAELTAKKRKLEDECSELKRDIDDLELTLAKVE

- Kd [1]: 18 µM
- Kd [2]: 35 µM
B1: mTFP-C0C2 (C0C2 of cMyBP-C conjugated to mTFP at its N terminus) (domain or fragment)
chain: MPEPGKRPVSAFTKKPRSVEVTAGSAAVFEAETERSGLKVQWQRDGSDIAANDKYGLAAEGKRHTLTVRDVGPDDQGSYAVIAGSSKVKFDLKVTEPAPPEKAESAVAPTSMEAPETPKEVPALATQLEGNVSSPEGSVSVTQDGSVAGSQGAPDDPIGLFLMRPQDGEVTVGGSIVFSARVAGASLLKPPVVKWFKGKWVDLSSKVGQHLQLHDSYDRASKVYLFELHITDAQATSAGGYRCEVSTKDKFDSCNFNLTVHEAIGSGDLDLRSAFRRTSLAGTGRRTSDSHEDAGTLDFSSLLKKSSFRRDSKLEAPAEEDVWEILRQAPPSEYERIAFQHGVTDLRGMLKRLKGMKHDEKKSTAFQKKLEPAYQVNKGHKIRLTVELADPDAEVKWLKNGQEIQMSGRYIFESIGAKRTLTISQCSLADDAAYQCVVGGEKCSTELFVKEP
modifications: not checked

- Kd [1]: 42 µM
- Kd [2]: 20 µM
B2: N-terminal fragment of cMyBP-C containing domains C0 through C2 (C0C2), wild type (domain or fragment)
chain: B1 chain
modifications: not checked

Source: article PMC10041117
